Substitutions are numbered along the chain they refer to.
B1: 5an047 (antibody, V domains shown)
VH: EVQLQQSGPELVKPGASVRISCKASGYTFSDYYYMNWVKKSHGKSLEWIGYIFPKTGGTHYNQRFKGKATLTVDKSSSTAYMELRSLTSEDSAVYYCASGPFAYWGQGTLVTVSA
VL: EIVLTQSPAIMSASPGEKVTMTCRASSSVSSSYLHWYQQKSGASPKLWIYSTSNLASGVPARFSGSGSGTSYSLTISSVEAEDAATYYCQQYSGYPLTFGAGTKLELKR
notes: Murine
B2: 5an052 (antibody, V domains shown)
VH: B1 VH with S30N, K40Q
VL: QIVLTQSPAIMSASPGEKVTLTCSASSSVSSSYLYWYQQKPGSSPKLWIYSTSNLASGVPARFSGSGSGTSYSLTISTVEAEDAASYFCHQWSSYPPTFGGGTKLEIKR
notes: Murine
B3: 5an054ME (antibody, V domains shown)
VH: B1 VH with R19K, S30T, K40Q, K55N, H60T
VL: QIVLTQSPVIMSASPGEKVTMTCSASSSVSYMYWYQQKPGSSPRLLIYDTSNLASGVPVRFSGSGSGTSYSLTISRMEAEDAATYYCQQWSSYPPTFGAGTKLELKR
notes: Murine
B4: 5anE11 (antibody, V domains shown)
VH: B1 VH
VL: DIVMTQSQKFMSTSVGDRVSVTCKASQNVGTNVAWYQQKPGQSPKALIYSASYRYSGVPDRFTGSGSGTDFTLTISNVQSEDLAEYFCQQYNSYPWTFGGGTKLEIKR
notes: Murine
B5: 5anG12 (antibody, V domains shown)
VH: B1 VH with S30N, K40Q
VL: QIVLTQSPAIMSASPGEKVTMTCSASSSISYMHWYQQKPGTSPKRWIYDTSKLASGVPARFSGSGSGTSYSLTISSMEAEDAATYYCHQRSSYPWTFGGGTKLEIKR
notes: Murine
B6: 5anG10 (antibody, V domains shown)
VH: B1 VH with S30N, K40Q
VL: B5 VL with S91R
notes: Murine
B7: 5an110ME (antibody, V domains shown)
VH: B1 VH with R19K, H60N, N62S
VL: B4 VL with W96F, G100S
notes: Murine
B8: 5an053 (antibody, V domains shown)
VH: B1 VH with L4M, R19K, H60N
VL: B5 VL with Q1E, A9V, T22I, S76I
notes: Murine
B9: 5an109 (antibody, V domains shown)
VH: B1 VH with R19K, H60N
VL: B3 VL with Q1E, V9A, A99G, L105I
notes: Murine
B10: 5an055 (antibody, V domains shown)
VH: B1 VH with R19K, H60N
VL: B2 VL with Q1E, T78S, V79M
notes: Murine
B11: 5an181 (antibody, V domains shown)
VH: B1 VH with R19K, H60N
VL: B1 VL
notes: Murine
B12: 5an188ME (antibody, V domains shown)
VH: EVQLQQSGAELVKPGTSVKLSCKASGYTFTSYWMHWVKQRPGQGLEYIGEIHPSSGHTNYHEKFKSKATLTVDKSSSTAYMQLSSLTSEDSAVYYCARASLLRAYAMDYWGQGTSVTVSS
VL: DIVLTQSPASLAVSLGQRATISCRASESVDSYGNSFMHWYQQKPGQPPKLLIYLASNLESGVPARFSGSGSRTDFTLTIDPVEADDAATYYCQQNNEDPLTFGAGTKLELKR
notes: Murine
B13: 5an185ME (antibody, V domains shown)
VH: EVQPQQSGPELVKPGSSVKISCKASGYTFTDYSMDWVKQSHGKSLEWIGAIHLNTGYTNYNQKFKGKATLTVDKSSSTAYMELRSLTSEDSAVYYCARGFYDGYSPMDYWGQGTSVTVSS
VL: B12 VL with L54R, V62I, D80N, A87V, N95S
notes: Murine
B14: 5an183 (antibody, V domains shown)
VH: EVQLQQPGSVLVRPGATVKLSCKASGFTFTSSWMHWAKQRPGQGLEWIGEIHTSGHTNYNEKFKGKATLTLDTSSSTAYVDISSLTSEDSAVYYCARGGLRRGYAMDYWGQGTSVTVSS
VL: B12 VL with L54R, V62I, D80N, A87V, N95S
notes: Murine
B15: 5an177ME (antibody, V domains shown)
VH: EVKLVESGGGLVKPGGSLKLSCAASGITFSSYYMAWVRQTPDKRLEWVATISSGGSYTYYPDNVKGRFTISRDNAKNTLYLQMSSLKSEDTAMYYCTRYYEDDAMDYWGQGTSVTVSS
VL: B5 VL with Q1E, I29V, P39S, H88Q, R90W, Y93N, W95L, G99A, I105L
notes: Murine
B16: BNJ367 (antibody, human IgG2, kappa)
heavy: QVQLVQSGAEVKKPGASVKVSCKASGYTFTDYSMDWVRQAPGQGLEWMGAINPNSGGTNYNQKFKDRVTMTRDTSTSTVYMELSSLRSEDTAVYYCARSGSYDGYYAMDYWGQGTTVTVSSASTKGPSVFPLAPCSRSTSESTAALGCLVKDYFPEPVTVSWNSGALTSGVHTFPAVLQSSGLYSLSSVVTVPSSNFGTQTYTCNVDHKPSNTKVDKTVERKCCVECPPCPAPPVAGPSVFLFPPKPKDTLMISRTPEVTCVVVDVSQEDPEVQFNWYVDGVEVHNAKTKPREEQFNSTYRVVSVLTVLHQDWLNGKEYKCKVSNKGLPSSIEKTISKAKGQPREPQVYTLPPSQEEMTKNQVSLTCLVKGFYPSDIAVEWESNGQPENNYKTTPPVLDSDGSFFLYSRLTVDKSRWQEGNVFSCSVMHEALHNHYTQKSLSLSLGK
light: DIVMTQSPDSLAVSLGERATINCRASESVDSYGNSFMHWYQQKPGQPPKLLIYRASNLESGVPDRFSGSGSGTDFTLTISSLQAEDVAVYYCQQSNEDPYTFGGGTKVEIKRTVAAPSVFIFPPSDEQLKSGTASVVCLLNNFYPREAKVQWKVDNALQSGNSQESVTEQDSKDSTYSLSSTLTLSKADYEKHKVYACEVTHQGLSSPVTKSFNRGEC
notes: Humanized full length IgG
B17: BNJ371 (antibody, human IgG2, kappa, V domains shown)
VH: QVQLVQSGAEVKKPGASVKVSCKASGYTFTDYSMDWVRQAPGQGLEWMGAINPNSGGTNYNQKFKDRVTMTRDTSTSTVYMELSSLRSEDTAVYYCARSGSYDGYYAMDYWGQGTTVTVSS
VL: DIVMTQSPDSLAVSLGERATINCRASESVDSYGNSFMHWYQQKPGQPPKLLIYWASTRESGVPDRFSGSGSGTDFTLTISSLQAEDVAVYYCQQSNEDPYTFGGGTKVEIKR
notes: Humanized full length IgG; Light chain CDR2 is humanized
B18: BNJ364 (antibody, human IgG2, kappa)
heavy: QVQLVQSGAEVKKPGASVKVSCKASGYTFTDYSMDWVRQAPGQGLEWMGAINPNSGGTNYNQKFKDRVTMTRDTSTSTVYMELSSLRSEDTAVYYCARSGSYDGYYAMDYWGQGTTVTVSSASTKGPSVFPLAPCSRSTSESTAALGCLVKDYFPEPVTVSWNSGALTSGVHTFPAVLQSSGLYSLSSVVTVPSSNFGTQTYTCNVDHKPSNTKVDKTVERKCCVECPPCPAPPVAGPSVFLFPPKPKDTLMISRTPEVTCVVVDVSHEDPEVQFNWYVDGVEVHNAKTKPREEQFNSTFRVVSVLTVVHQDWLNGKEYKCKVSNKGLPAPIEKTISKTKGQPREPQVYTLPPSREEMTKNQVSLTCLVKGFYPSDISVEWESNGQPENNYKTTPPMLDSDGSFFLYSKLTVDKSRWQQGNVFSCSVMHEALHNHYTQKSLSLSPGK
light: B16 light
notes: Humanized full length IgG
B19: BNJ369 (antibody, human IgG2, kappa)
heavy: QVQLVQSGAEVKKPGASVKVSCKASGYTFTDYSMDWVRQAPGQGLEWMGAIHLNTGYTNYNQKFKGRVTMTRDTSTSTVYMELSSLRSEDTAVYYCARGFYDGYSPMDYWGQGTTVTVSSASTKGPSVFPLAPCSRSTSESTAALGCLVKDYFPEPVTVSWNSGALTSGVHTFPAVLQSSGLYSLSSVVTVPSSNFGTQTYTCNVDHKPSNTKVDKTVERKCCVECPPCPAPPVAGPSVFLFPPKPKDTLMISRTPEVTCVVVDVSQEDPEVQFNWYVDGVEVHNAKTKPREEQFNSTYRVVSVLTVLHQDWLNGKEYKCKVSNKGLPSSIEKTISKAKGQPREPQVYTLPPSQEEMTKNQVSLTCLVKGFYPSDIAVEWESNGQPENNYKTTPPVLDSDGSFFLYSRLTVDKSRWQEGNVFSCSVMHEALHNHYTQKSLSLSLGK
light: B16 light
notes: Humanized full length IgG
B20: BNJ381 (antibody, human IgG2, kappa, V domains shown)
VH: QVQLVQSGAEVKKPGASVKVSCKASGYTFTDYSMDWVRQAPGQGLEWMGAIHLNTGYTNYNQKFKGRVTMTRDTSTSTVYMELSSLRSEDTAVYYCARGFYDGYSPMDYWGQGTTVTVSS
VL: B17 VL
notes: as for B17

The binders below were run against T1, human C5a (human, UniProt P01031 678-751) (assay: ELISA).
T1 construct: also called hC5a; free human C5a
T1 sequence: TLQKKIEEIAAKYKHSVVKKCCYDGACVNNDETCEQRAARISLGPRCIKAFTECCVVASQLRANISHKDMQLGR

Row | Binder | binding result
1 | B1 | binds
2 | B2 | binds
3 | B3 | binds
4 | B4 | binds
5 | B5 | binds
6 | B6 | binds
7 | B7 | binds
8 | B8 | binds
9 | B9 | binds
10 | B10 | binds
11 | B11 | binds
12 | B12 | binds
13 | B13 | binds
14 | B14 | binds
15 | B15 | binds

The binders below were run against T1, human C5a (assay: SPR (Biacore); summary sentence of Table 4).
Experimental: (§1) See, e.g., Karlsson and Larsson (2004) Methods Mol Biol 248:389-415. […] The surface was regenerated with 20 mM HCl, 0.02% P20 after each cycle to remove bound antibody and antigen. The data was evaluated using Biacore BlAevaluation software using a 1:1 Langmuir Model Fit (Rmax:Global Fit; R1:Local Fit). Kinetics information such as (kₐ: Association Rate constant), (kd:Dissociation Rate constant) and KD (Equilibrium Dissociation constant) was obtained from the fit. These experiments were for screening purposes with a minimal number of analyte concentrations (3 to 4) with 1 duplicate.

Row | Binder | Kd [nM]
16 | B16 | < 1
17 | B17 | < 1.2
18 | B18 | < 1

What follows are binders tested against T1, human C5a (assay: SPR (Biacore); antibody captured by anti-human Fc on CM5 chip, human C5a 0.6-5.9 nM as analyte; 1:1 Langmuir fit).
Experimental: as §1

Row | Binder | Kd [nM] | koff [s⁻¹] | kon [M⁻¹ s⁻¹]
19 | B16 | 0.198 | 0.000778 | 3.94e+06
20 | B19 | 0.0531 | 0.000223 | 4.19e+06
21 | B17 | 1.18 | 0.00282 | 2.38e+06
22 | B18 | 0.644 | 0.000638 | 991000
23 | B20 | 0.0815 | 0.000209 | 2.57e+06

— US20130224187A1 (Alexion, published 2013)
